The numbers were not newly measured in patent publication US20030144198A1, “Coadministration of transport protein with conjugated cobalamin to deliver agents” (priority 2001, published 2003), which cites them from elsewhere.

For data set [1] the following is noted: the D isomer was not hydrolyzed.
The target in the next data set is cubilin (Homo sapiens, UniProt O60494). To be noted: at 20° C., single binding site, dependent on calcium.
For data set [2] the following is noted: in plasma.

Chain of cubilin (O60494 36-3623, species assumed): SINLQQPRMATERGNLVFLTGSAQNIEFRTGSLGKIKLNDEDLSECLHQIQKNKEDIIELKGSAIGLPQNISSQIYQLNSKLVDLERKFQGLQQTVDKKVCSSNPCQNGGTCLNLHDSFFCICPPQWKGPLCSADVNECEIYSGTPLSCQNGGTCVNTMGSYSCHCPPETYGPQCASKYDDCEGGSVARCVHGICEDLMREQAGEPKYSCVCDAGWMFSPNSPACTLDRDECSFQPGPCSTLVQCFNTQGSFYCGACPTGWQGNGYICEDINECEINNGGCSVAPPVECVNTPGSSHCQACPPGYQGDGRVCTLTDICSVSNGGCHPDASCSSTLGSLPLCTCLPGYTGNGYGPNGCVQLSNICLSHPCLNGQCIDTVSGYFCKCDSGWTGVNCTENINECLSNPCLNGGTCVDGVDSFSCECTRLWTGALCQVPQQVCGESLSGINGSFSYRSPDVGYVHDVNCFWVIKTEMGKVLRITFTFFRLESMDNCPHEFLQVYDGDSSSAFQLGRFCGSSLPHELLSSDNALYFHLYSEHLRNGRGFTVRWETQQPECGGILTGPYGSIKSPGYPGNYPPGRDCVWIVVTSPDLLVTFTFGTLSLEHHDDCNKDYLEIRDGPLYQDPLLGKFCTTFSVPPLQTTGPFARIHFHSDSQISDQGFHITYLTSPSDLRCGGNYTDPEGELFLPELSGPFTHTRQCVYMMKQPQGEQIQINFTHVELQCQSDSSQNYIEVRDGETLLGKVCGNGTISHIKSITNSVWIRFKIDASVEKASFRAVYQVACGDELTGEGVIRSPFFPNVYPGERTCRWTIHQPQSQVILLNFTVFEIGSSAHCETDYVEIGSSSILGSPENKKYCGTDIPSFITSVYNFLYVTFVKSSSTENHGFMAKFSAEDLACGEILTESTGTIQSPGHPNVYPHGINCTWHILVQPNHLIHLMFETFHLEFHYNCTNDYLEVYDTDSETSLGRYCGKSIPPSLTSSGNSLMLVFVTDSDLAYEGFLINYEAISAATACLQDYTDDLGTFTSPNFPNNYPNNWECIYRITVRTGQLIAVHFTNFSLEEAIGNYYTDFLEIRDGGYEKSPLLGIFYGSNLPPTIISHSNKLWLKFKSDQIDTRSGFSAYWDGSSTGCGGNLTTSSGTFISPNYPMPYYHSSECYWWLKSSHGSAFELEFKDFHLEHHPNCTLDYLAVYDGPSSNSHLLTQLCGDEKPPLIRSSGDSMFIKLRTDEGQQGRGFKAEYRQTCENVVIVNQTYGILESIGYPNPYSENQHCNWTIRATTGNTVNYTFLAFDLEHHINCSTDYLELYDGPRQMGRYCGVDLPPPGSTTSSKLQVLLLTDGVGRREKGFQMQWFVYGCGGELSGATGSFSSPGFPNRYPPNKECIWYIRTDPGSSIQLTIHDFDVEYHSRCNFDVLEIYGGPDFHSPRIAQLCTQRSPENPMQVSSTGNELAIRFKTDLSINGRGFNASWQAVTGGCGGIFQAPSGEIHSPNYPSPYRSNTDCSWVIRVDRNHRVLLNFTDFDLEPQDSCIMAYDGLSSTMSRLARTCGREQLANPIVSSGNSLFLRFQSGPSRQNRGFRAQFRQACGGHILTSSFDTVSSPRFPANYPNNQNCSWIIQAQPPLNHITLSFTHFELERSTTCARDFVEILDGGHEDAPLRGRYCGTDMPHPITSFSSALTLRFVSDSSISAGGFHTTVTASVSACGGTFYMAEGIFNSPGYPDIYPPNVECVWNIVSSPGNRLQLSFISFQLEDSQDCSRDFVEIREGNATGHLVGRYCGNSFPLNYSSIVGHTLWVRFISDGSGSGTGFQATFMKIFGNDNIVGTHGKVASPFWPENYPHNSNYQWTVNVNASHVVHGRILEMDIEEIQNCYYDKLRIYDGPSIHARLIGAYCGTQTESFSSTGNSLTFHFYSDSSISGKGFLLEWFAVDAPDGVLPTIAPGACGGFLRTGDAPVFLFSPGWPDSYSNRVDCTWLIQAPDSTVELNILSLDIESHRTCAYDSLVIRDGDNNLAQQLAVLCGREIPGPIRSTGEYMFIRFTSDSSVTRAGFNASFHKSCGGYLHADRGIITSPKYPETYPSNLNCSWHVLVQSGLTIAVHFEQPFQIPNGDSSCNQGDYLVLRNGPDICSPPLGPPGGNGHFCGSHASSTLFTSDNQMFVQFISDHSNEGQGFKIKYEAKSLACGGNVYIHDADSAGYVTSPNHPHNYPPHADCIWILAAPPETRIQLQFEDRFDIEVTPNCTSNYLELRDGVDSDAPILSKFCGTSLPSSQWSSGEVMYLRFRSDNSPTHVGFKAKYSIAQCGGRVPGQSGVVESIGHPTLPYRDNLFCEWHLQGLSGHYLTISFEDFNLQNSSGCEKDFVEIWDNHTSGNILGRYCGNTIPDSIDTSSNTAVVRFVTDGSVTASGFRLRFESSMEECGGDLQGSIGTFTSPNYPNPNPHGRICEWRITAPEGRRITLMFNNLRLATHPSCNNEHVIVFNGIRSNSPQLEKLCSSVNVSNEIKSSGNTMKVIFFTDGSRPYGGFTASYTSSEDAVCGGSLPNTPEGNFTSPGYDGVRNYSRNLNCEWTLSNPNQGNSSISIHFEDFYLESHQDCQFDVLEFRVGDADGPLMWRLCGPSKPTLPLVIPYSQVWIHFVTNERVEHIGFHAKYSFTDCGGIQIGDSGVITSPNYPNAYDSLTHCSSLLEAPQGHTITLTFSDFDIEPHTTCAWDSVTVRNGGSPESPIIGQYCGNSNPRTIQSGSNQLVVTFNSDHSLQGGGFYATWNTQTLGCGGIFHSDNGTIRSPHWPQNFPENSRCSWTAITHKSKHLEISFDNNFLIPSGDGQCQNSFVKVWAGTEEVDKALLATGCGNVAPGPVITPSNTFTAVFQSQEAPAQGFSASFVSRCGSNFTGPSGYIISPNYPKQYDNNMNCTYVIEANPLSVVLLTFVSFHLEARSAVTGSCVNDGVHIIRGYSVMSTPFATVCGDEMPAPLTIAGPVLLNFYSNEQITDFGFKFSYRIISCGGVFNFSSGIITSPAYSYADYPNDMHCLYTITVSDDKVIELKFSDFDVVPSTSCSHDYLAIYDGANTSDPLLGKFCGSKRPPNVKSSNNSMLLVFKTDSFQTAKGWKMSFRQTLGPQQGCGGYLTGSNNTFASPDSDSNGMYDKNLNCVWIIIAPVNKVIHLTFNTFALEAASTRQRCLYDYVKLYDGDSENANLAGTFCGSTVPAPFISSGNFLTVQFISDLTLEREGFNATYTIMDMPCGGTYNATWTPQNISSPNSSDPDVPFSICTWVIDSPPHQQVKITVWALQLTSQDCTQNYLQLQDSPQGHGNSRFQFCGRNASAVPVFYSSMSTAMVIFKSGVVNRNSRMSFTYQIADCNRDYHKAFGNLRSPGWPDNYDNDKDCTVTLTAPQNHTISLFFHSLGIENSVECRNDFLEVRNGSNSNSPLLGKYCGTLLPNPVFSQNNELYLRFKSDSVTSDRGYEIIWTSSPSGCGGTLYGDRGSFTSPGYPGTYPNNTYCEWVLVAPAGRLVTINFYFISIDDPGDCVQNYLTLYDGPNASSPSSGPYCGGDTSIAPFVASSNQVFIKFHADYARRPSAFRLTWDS
Chain of cubilin (P27352 19-417 partner, species assumed): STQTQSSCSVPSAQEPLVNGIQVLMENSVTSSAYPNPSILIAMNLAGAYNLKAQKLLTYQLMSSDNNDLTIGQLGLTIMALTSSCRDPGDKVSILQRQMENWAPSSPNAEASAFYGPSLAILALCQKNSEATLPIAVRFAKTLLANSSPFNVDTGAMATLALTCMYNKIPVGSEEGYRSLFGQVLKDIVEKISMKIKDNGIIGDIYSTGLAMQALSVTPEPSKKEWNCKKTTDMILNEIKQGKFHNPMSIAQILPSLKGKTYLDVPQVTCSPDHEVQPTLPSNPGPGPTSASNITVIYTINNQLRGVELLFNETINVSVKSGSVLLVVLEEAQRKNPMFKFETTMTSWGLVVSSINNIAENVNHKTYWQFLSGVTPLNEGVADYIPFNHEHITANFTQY

As for `COc1cccc2c1C(=O)c1c(O)c3c(c(O)c1C2=O)C[C@@](O)(C(C)=O)C[C@@H]3O[C@H]1C[C@H](NC(=O)[C@@H](N)CC(C)C)C(O)[C@H](C)O1` (stereo partly drawn) [N-(L-leucyl) daunorubicin], the hydrolysis in vivo result in data set [1] was “hydrolyzed in vivo to regenerate daunorubicin”.
A word on the Kd: it is the equilibrium constant for the complex coming apart. On to “IF-B12: complex of intrinsic factor with vitamin B12”, for which the Kd with cubilin is 1 to 5 nM.

B1: HC: haptocorrin, group of cobalamin binding proteins that includes TC-I and TC-III (protein, UniProt P20061 24-433, looked up)
Transcobalamin-1: EICEVSEENYIRLKPLLNTMIQSNYNRGTSAVNVVLSLKLVGIQIQTLMQKMIQQIKYNVKSRLSDVSSGELALIILALGVCRNAEENLIYDYHLIDKLENKFQAEIENMEAHNGTPLTNYYQLSLDVLALCLFNGNYSTAEVVNHFTPENKNYYFGSQFSVDTGAMAVLALTCVKKSLINGQIKADEGSLKNISIYTKSLVEKILSEKKENGLIGNTFSTGEAMQALFVSSDYYNENDWNCQQTLNTVLTEISQGAFSNPNAAAQVLPALMGKTFLDINKDSSCVSASGNFNISADEPITVTPPDSQSYISVNYSVRINETYFTNVTVLNGSVFLSVMEKAQKMNDTIFGFTMEERSWGPYITCIQGLCANNNDRTYWELLSGGEPLSQGAGSYVVRNGENLEVRWSKY
As to B1, in data set [2], the t1/2 was 240 h.

B2: TC-I: transcobalamin I, plasma cobalamin storage protein (protein, UniProt P20061 24-433, looked up)
Transcobalamin-1: B1 Transcobalamin-1
For the molecule B2, the t1/2 in data set [2] was 240 h.
